Measurements as given in article PMC5593958, “Dissecting the link between the enzymatic activity and the SaPI inducing capacity of the phage 80α dUTPase” (Scientific Reports, 2017).

Legend:
[1] = tested on: O=c1ccn([C@H]2C[C@H](O)[C@@H](COP(=O)(O)OP(=O)(O)OP(=O)(O)O)O2)c(=O)[nH]1; assay: malachite green phosphate assay; assay type: biochemical, Dubowvirus dv80alpha; details: pH 7.5
From the text: malachite green phosphate assay on Dut80α

Dut80α = target: T1, Dut80α (Dubowvirus dv80alpha, UniProt A4ZF98); assay: thermal shift (Sypro Orange); assay type: binding; details: 1 mM dUPNPP, 5 mM MgCl2, 10 μM protein, 75 mM HEPES pH 7.5, 250 mM NaCl; absolute Tm, not a shift; decimal comma as printed
T1 construct: pET28a, His-tagged, E. coli BL21 (DE3), HisTrap and size exclusion; homotrimer; last residues cited about 170
From the text: thermal shift (Sypro Orange) on Dut80α

[2] = target: phage 80α dUTPase D95E mutant (Dut80α D95E) (Staphylococcus aureus phage 80α); assay: crystal structure
[3] = target: phage 80α dUTPase D95E mutant (Dut80α D95E) (Staphylococcus aureus phage 80α); assay: BLI

Molecule: (Dubowvirus dv80alpha)
- Km [1]: 7.5 µM

Molecule: O=c1ccn([C@H]2C[C@H](O)[C@@H](COP(=O)(O)NP(=O)(O)OP(=O)(O)O)O2)c(=O)[nH]1 [dUPNPP, 2′-Deoxyuridine-5′-[(α,β)-imido]triphosphate]
- Thermal Unfolding (°C) / +dUPNPP (Dut80α): 58 ± 0,09

Molecule: phage 80α dUTPase D95E mutant (Dut80α D95E) (enzyme)
- stoichiometry N [2]: 3

Molecule: Stl repressor from SaPIbov1 (natural protein)
- Kd [3]: > 1 mM
